The source of these data is IntAct's records for PubMed 22841714.

The labels stand for the following.
B1: ADP-ribosylation factor 6 (Mus musculus), P62331 (parent)
chain: MGKVLSKIFGNKEMRILMLGLDAAGKTTILYKLKLGQSVTTIPTVGFNVETVTYKNVKFNVWDVGGQDKIRPLWRHYYTGTQGLIFVVDCADRDRIDEARQELHRIINDREMRDAIILIFANKQDLPDAMKPHEIQEKLGLTRIRDRNWYVQPSCATSGDGLYEGLTWLTSNYKS
partner: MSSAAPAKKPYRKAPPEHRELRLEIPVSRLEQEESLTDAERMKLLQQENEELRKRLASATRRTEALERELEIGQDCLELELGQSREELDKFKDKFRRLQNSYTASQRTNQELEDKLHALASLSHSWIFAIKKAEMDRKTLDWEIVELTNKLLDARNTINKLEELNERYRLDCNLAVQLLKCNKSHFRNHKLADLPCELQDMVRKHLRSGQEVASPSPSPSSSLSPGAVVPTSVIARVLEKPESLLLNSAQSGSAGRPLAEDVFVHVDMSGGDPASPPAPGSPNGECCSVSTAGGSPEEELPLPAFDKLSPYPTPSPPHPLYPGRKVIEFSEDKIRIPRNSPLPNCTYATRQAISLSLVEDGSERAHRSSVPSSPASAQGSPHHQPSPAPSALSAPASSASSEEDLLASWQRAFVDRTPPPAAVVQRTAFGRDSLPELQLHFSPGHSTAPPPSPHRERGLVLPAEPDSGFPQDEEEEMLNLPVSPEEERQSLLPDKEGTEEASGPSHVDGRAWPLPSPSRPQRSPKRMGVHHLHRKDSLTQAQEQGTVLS

Variants of B1 are the subject of the assay. The following applies: with tjap1_mouse Tjap1, Q9DCD5.
As for T44N, the “effect of a mutation on the interaction” value is “disrupting interaction”.
